Test results: publication doi:10.1101/2025.10.29.685385
Each block holds one substance with its values, some of them ahead of it.

What was measured:
[1] = target: PITX3 homeodomain (human); assay: native gel or EMSA; quantitative EMSA, purified HD protein with 34 nM fluorescent K50 P3 probe (TAAT-CCG-ATTA); 20 min at room temperature, 10 mM Tris pH 7.5, 50 mM NaCl, 1 mM MgCl2, 4% glycerol, 0.5 mM DTT, 0.5 mM EDTA, poly(dI-dC), BSA; Tau = 4[P2D][D]/[PD]^2 (monomer on DNA to dimer on DNA)
[2] = target: OTP homeodomain (amino acids 99-164) (human) (UniProt Q5XKR4); assay: native gel or EMSA; quantitative EMSA, purified HD protein with 34 nM fluorescent P4 probe (a single G added to the spacer of the P3 probe); same buffer; Tau = 4[P2D][D]/[PD]^2 (monomer on DNA to dimer on DNA)
[3] = target: PHOX2B Q46K homeodomain (human); assay: native gel or EMSA; quantitative EMSA, purified HD protein with 34 nM fluorescent Q50 P3 probe (TAAT-TAG-ATTA); 20 min at room temperature, 10 mM Tris pH 7.5, 50 mM NaCl, 1 mM MgCl2, 4% glycerol, 0.5 mM DTT, 0.5 mM EDTA, poly(dI-dC), BSA; Tau = 4[P2D][D]/[PD]^2, the factor by which the first HD on the DNA helps the second to bind (monomer on DNA to dimer on DNA)
[4] = target: ALX4 homeodomain (amino acids 209-274) (human) (UniProt Q9H161); assay: native gel or EMSA; quantitative EMSA, purified HD protein with 34 nM fluorescent P4 probe (a single G added to the spacer of the P3 probe); same buffer; Tau = 4[P2D][D]/[PD]^2 (monomer on DNA to dimer on DNA)
[5] = target: PHOX2B Q46R homeodomain (human); assay: native gel or EMSA; quantitative EMSA, purified HD protein with 34 nM fluorescent Q50 P3 probe (TAAT-TAG-ATTA); 20 min at room temperature, 10 mM Tris pH 7.5, 50 mM NaCl, 1 mM MgCl2, 4% glycerol, 0.5 mM DTT, 0.5 mM EDTA, poly(dI-dC), BSA; Tau = 4[P2D][D]/[PD]^2, the factor by which the first HD on the DNA helps the second to bind (monomer on DNA to dimer on DNA)

- Tau (cooperativity factor) with P3 DNA [1]: 0.157
Substance: PITX3 homeodomain (domain or fragment)

- Tau (cooperativity factor) with P4 DNA [2]: 0.29
Substance: OTP homeodomain (amino acids 99-164) (from UniProt Q5XKR4 99-164) (domain or fragment)

- Tau (cooperativity factor) with P3 DNA [3]: 1.4
Substance: PHOX2B Q46K homeodomain (domain or fragment)

- Tau (cooperativity factor) with P4 DNA [4]: 0.792
Substance: ALX4 homeodomain (amino acids 209-274) (from UniProt Q9H161 209-274) (domain or fragment)

- Tau (cooperativity factor) with P3 DNA [5]: 1.27
Substance: PHOX2B Q46R homeodomain (domain or fragment)
